Data reported in publication PMC4511852.

Tests used:
[1] = biological target: Avitag-RSL-His8 (RSL with biotin via the Avitag on the N-terminus and His8 on the C-terminus) (Ralstonia solanum); assay: SEC
[2] = biological target: His8-RSL-Avitag (RSL with poly-histidine on the N-terminus and biotin via the Avitag on the C-terminus) (Ralstonia solanum); assay: SEC

Avitag-RSL-His8 (RSL with biotin via the Avitag on the N-terminus and His8 on the C-terminus) (natural protein)
stoichiometry N [1]: 2

His8-RSL-Avitag (RSL with poly-histidine on the N-terminus and biotin via the Avitag on the C-terminus) (natural protein)
stoichiometry N [2]: 3
